For 20 molecules, IC50 ratio (WT IC50/mutant IC50) and IC50 (n.d.: 10 nM or more) results are on record in US20220064312A1.

The target in the experiment is human CCR8 (human) (UniProt P51685). The experiment in a line: cell-based or functional assay.
Sequence of human CCR8 (human) (P51685 whole entry): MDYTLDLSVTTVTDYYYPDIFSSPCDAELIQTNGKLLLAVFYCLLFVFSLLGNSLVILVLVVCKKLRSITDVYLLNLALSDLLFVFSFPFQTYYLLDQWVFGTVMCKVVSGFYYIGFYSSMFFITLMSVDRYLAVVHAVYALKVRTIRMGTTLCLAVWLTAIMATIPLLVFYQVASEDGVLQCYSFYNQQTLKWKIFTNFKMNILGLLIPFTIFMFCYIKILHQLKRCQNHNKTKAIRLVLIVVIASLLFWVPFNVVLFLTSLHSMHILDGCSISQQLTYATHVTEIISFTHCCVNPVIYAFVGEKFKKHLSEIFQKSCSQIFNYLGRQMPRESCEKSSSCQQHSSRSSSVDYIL

B1: h10A11 IGKV4-1/IGHV3-73 T31A (antibody, name in Kabat numbering, V domains shown)
VH: EVQLVESGGGLVQPGGSLKLSCAASGFAFNAYALYWVRQASGKGLEWVGRIRSKSNNYATYYADSVKDRFTISRDDSKNTAYLQMNSLKTEDTAVYYCTRARFYYSDYGYAMDYWGQGTLVTVSS
VL: DIVMTQSPDSLAVSLGERATINCRSSKSLLHSNGNTYLYWYQQKPGQPPKLLIYRMSNLASGVPDRFSGSGSGTDFTLTISSLQAEDVAVYYCMQHLEYPLTFGQGTKLEIKR
Consider B1, for which the IC50 ratio (WT IC50/mutant IC50) came to 0.17.

B2: h10A11 IGKV4-1/IGHV3-73 L34I (antibody, name in Kabat numbering, V domains shown)
VH: EVQLVESGGGLVQPGGSLKLSCAASGFAFNTYAIYWVRQASGKGLEWVGRIRSKSNNYATYYADSVKDRFTISRDDSKNTAYLQMNSLKTEDTAVYYCTRARFYYSDYGYAMDYWGQGTLVTVSS
VL: DIVMTQSPDSLAVSLGERATINCRSSKSLLHSNGNTYLYWYQQKPGQPPKLLIYRMSNLASGVPDRFSGSGSGTDFTLTISSLQAEDVAVYYCMQHLEYPLTFGQGTKLEIKR
B2: the IC50 ratio (WT IC50/mutant IC50) was 0.43.

B3: h10A11 IGKV4-1/IGHV3-73 N53Q (antibody, name in Kabat numbering, V domains shown)
VH: EVQLVESGGGLVQPGGSLKLSCAASGFAFNTYALYWVRQASGKGLEWVGRIRSKSQNYATYYADSVKDRFTISRDDSKNTAYLQMNSLKTEDTAVYYCTRARFYYSDYGYAMDYWGQGTLVTVSS
VL: DIVMTQSPDSLAVSLGERATINCRSSKSLLHSNGNTYLYWYQQKPGQPPKLLIYRMSNLASGVPDRFSGSGSGTDFTLTISSLQAEDVAVYYCMQHLEYPLTFGQGTKLEIKR
As for B3, the IC50 ratio (WT IC50/mutant IC50) amounted to 0.03.

B4: h10A11 IGKV4-1/IGHV3-73 K52bR (antibody, name in Kabat numbering, V domains shown)
VH: EVQLVESGGGLVQPGGSLKLSCAASGFAFNTYALYWVRQASGKGLEWVGRIRSRSNNYATYYADSVKDRFTISRDDSKNTAYLQMNSLKTEDTAVYYCTRARFYYSDYGYAMDYWGQGTLVTVSS
VL: DIVMTQSPDSLAVSLGERATINCRSSKSLLHSNGNTYLYWYQQKPGQPPKLLIYRMSNLASGVPDRFSGSGSGTDFTLTISSLQAEDVAVYYCMQHLEYPLTFGQGTKLEIKR
For B4, the IC50 ratio (WT IC50/mutant IC50) was 0.47.

B5: h10A11 IGKV4-1/IGHV3-73 R52K (antibody, name in Kabat numbering, V domains shown)
VH: EVQLVESGGGLVQPGGSLKLSCAASGFAFNTYALYWVRQASGKGLEWVGRIKSKSNNYATYYADSVKDRFTISRDDSKNTAYLQMNSLKTEDTAVYYCTRARFYYSDYGYAMDYWGQGTLVTVSS
VL: DIVMTQSPDSLAVSLGERATINCRSSKSLLHSNGNTYLYWYQQKPGQPPKLLIYRMSNLASGVPDRFSGSGSGTDFTLTISSLQAEDVAVYYCMQHLEYPLTFGQGTKLEIKR
B5 gave an IC50 (n.d.: 10 nM or more) greater than 10 nM.

B6: h10A11 IGKV4-1/IGHV3-73 A33V (antibody, name in Kabat numbering, V domains shown)
VH: EVQLVESGGGLVQPGGSLKLSCAASGFAFNTYVLYWVRQASGKGLEWVGRIRSKSNNYATYYADSVKDRFTISRDDSKNTAYLQMNSLKTEDTAVYYCTRARFYYSDYGYAMDYWGQGTLVTVSS
VL: DIVMTQSPDSLAVSLGERATINCRSSKSLLHSNGNTYLYWYQQKPGQPPKLLIYRMSNLASGVPDRFSGSGSGTDFTLTISSLQAEDVAVYYCMQHLEYPLTFGQGTKLEIKR
The molecule B6 returned an IC50 (n.d.: 10 nM or more) greater than 10 nM.

B7: h10A11 IGKV4-1/IGHV3-73 T57S (antibody, name in Kabat numbering, V domains shown)
VH: EVQLVESGGGLVQPGGSLKLSCAASGFAFNTYALYWVRQASGKGLEWVGRIRSKSNNYASYYADSVKDRFTISRDDSKNTAYLQMNSLKTEDTAVYYCTRARFYYSDYGYAMDYWGQGTLVTVSS
VL: DIVMTQSPDSLAVSLGERATINCRSSKSLLHSNGNTYLYWYQQKPGQPPKLLIYRMSNLASGVPDRFSGSGSGTDFTLTISSLQAEDVAVYYCMQHLEYPLTFGQGTKLEIKR
For B7, the IC50 ratio (WT IC50/mutant IC50) stood at 0.49.

B8: h10A11 IGKV4-1/IGHV3-73 Y59F (antibody, name in Kabat numbering, V domains shown)
VH: EVQLVESGGGLVQPGGSLKLSCAASGFAFNTYALYWVRQASGKGLEWVGRIRSKSNNYATYFADSVKDRFTISRDDSKNTAYLQMNSLKTEDTAVYYCTRARFYYSDYGYAMDYWGQGTLVTVSS
VL: DIVMTQSPDSLAVSLGERATINCRSSKSLLHSNGNTYLYWYQQKPGQPPKLLIYRMSNLASGVPDRFSGSGSGTDFTLTISSLQAEDVAVYYCMQHLEYPLTFGQGTKLEIKR
Regarding B8, the IC50 ratio (WT IC50/mutant IC50) is 0.03.

B9: h10A11 IGKV4-1/IGHV3-73 Y58F (antibody, name in Kabat numbering, V domains shown)
VH: EVQLVESGGGLVQPGGSLKLSCAASGFAFNTYALYWVRQASGKGLEWVGRIRSKSNNYATFYADSVKDRFTISRDDSKNTAYLQMNSLKTEDTAVYYCTRARFYYSDYGYAMDYWGQGTLVTVSS
VL: DIVMTQSPDSLAVSLGERATINCRSSKSLLHSNGNTYLYWYQQKPGQPPKLLIYRMSNLASGVPDRFSGSGSGTDFTLTISSLQAEDVAVYYCMQHLEYPLTFGQGTKLEIKR
Turning to B9, the IC50 ratio (WT IC50/mutant IC50) is 0.5.

B10: h10A11 IGKV4-1/IGHV3-73 I51L (antibody, name in Kabat numbering, V domains shown)
VH: EVQLVESGGGLVQPGGSLKLSCAASGFAFNTYALYWVRQASGKGLEWVGRLRSKSNNYATYYADSVKDRFTISRDDSKNTAYLQMNSLKTEDTAVYYCTRARFYYSDYGYAMDYWGQGTLVTVSS
VL: DIVMTQSPDSLAVSLGERATINCRSSKSLLHSNGNTYLYWYQQKPGQPPKLLIYRMSNLASGVPDRFSGSGSGTDFTLTISSLQAEDVAVYYCMQHLEYPLTFGQGTKLEIKR
For B10, the IC50 ratio (WT IC50/mutant IC50) turned out to be 0.22.

B11: h10A11 IGKV4-1/IGHV3-73 S52cT (antibody, name in Kabat numbering, V domains shown)
VH: EVQLVESGGGLVQPGGSLKLSCAASGFAFNTYALYWVRQASGKGLEWVGRIRSKTNNYATYYADSVKDRFTISRDDSKNTAYLQMNSLKTEDTAVYYCTRARFYYSDYGYAMDYWGQGTLVTVSS
VL: DIVMTQSPDSLAVSLGERATINCRSSKSLLHSNGNTYLYWYQQKPGQPPKLLIYRMSNLASGVPDRFSGSGSGTDFTLTISSLQAEDVAVYYCMQHLEYPLTFGQGTKLEIKR
With B11, the IC50 ratio (WT IC50/mutant IC50) is 0.53.

B12: h10A11 IGKV4-1/IGHV3-73 D61E (antibody, name in Kabat numbering, V domains shown)
VH: EVQLVESGGGLVQPGGSLKLSCAASGFAFNTYALYWVRQASGKGLEWVGRIRSKSNNYATYYAESVKDRFTISRDDSKNTAYLQMNSLKTEDTAVYYCTRARFYYSDYGYAMDYWGQGTLVTVSS
VL: DIVMTQSPDSLAVSLGERATINCRSSKSLLHSNGNTYLYWYQQKPGQPPKLLIYRMSNLASGVPDRFSGSGSGTDFTLTISSLQAEDVAVYYCMQHLEYPLTFGQGTKLEIKR
B12: the IC50 ratio (WT IC50/mutant IC50) amounted to 0.25.

B13: h10A11 IGKV4-1/IGHV3-73 A56V (antibody, name in Kabat numbering, V domains shown)
VH: EVQLVESGGGLVQPGGSLKLSCAASGFAFNTYALYWVRQASGKGLEWVGRIRSKSNNYVTYYADSVKDRFTISRDDSKNTAYLQMNSLKTEDTAVYYCTRARFYYSDYGYAMDYWGQGTLVTVSS
VL: DIVMTQSPDSLAVSLGERATINCRSSKSLLHSNGNTYLYWYQQKPGQPPKLLIYRMSNLASGVPDRFSGSGSGTDFTLTISSLQAEDVAVYYCMQHLEYPLTFGQGTKLEIKR
On to B13, for which the IC50 ratio (WT IC50/mutant IC50) was found to be 0.55.

B14: h10A11 IGKV4-1/IGHV3-73 R50K (antibody, name in Kabat numbering, V domains shown)
VH: EVQLVESGGGLVQPGGSLKLSCAASGFAFNTYALYWVRQASGKGLEWVGKIRSKSNNYATYYADSVKDRFTISRDDSKNTAYLQMNSLKTEDTAVYYCTRARFYYSDYGYAMDYWGQGTLVTVSS
VL: DIVMTQSPDSLAVSLGERATINCRSSKSLLHSNGNTYLYWYQQKPGQPPKLLIYRMSNLASGVPDRFSGSGSGTDFTLTISSLQAEDVAVYYCMQHLEYPLTFGQGTKLEIKR
B14: the IC50 ratio (WT IC50/mutant IC50) is 0.12.

B15: h10A11 IGKV4-1/IGHV3-73 S62T (antibody, name in Kabat numbering, V domains shown)
VH: EVQLVESGGGLVQPGGSLKLSCAASGFAFNTYALYWVRQASGKGLEWVGRIRSKSNNYATYYADTVKDRFTISRDDSKNTAYLQMNSLKTEDTAVYYCTRARFYYSDYGYAMDYWGQGTLVTVSS
VL: DIVMTQSPDSLAVSLGERATINCRSSKSLLHSNGNTYLYWYQQKPGQPPKLLIYRMSNLASGVPDRFSGSGSGTDFTLTISSLQAEDVAVYYCMQHLEYPLTFGQGTKLEIKR
For B15, the IC50 ratio (WT IC50/mutant IC50) came out at 1.6.

B16: h10A11 IGKV4-1/IGHV3-73 A60V (antibody, name in Kabat numbering, V domains shown)
VH: EVQLVESGGGLVQPGGSLKLSCAASGFAFNTYALYWVRQASGKGLEWVGRIRSKSNNYATYYVDSVKDRFTISRDDSKNTAYLQMNSLKTEDTAVYYCTRARFYYSDYGYAMDYWGQGTLVTVSS
VL: DIVMTQSPDSLAVSLGERATINCRSSKSLLHSNGNTYLYWYQQKPGQPPKLLIYRMSNLASGVPDRFSGSGSGTDFTLTISSLQAEDVAVYYCMQHLEYPLTFGQGTKLEIKR
B16: the IC50 ratio (WT IC50/mutant IC50) was determined as 0.67.

B17: h10A11 IGKV4-1/IGHV3-73 Y32F (antibody, name in Kabat numbering, V domains shown)
VH: EVQLVESGGGLVQPGGSLKLSCAASGFAFNTFALYWVRQASGKGLEWVGRIRSKSNNYATYYADSVKDRFTISRDDSKNTAYLQMNSLKTEDTAVYYCTRARFYYSDYGYAMDYWGQGTLVTVSS
VL: DIVMTQSPDSLAVSLGERATINCRSSKSLLHSNGNTYLYWYQQKPGQPPKLLIYRMSNLASGVPDRFSGSGSGTDFTLTISSLQAEDVAVYYCMQHLEYPLTFGQGTKLEIKR
Turning to B17, the IC50 ratio (WT IC50/mutant IC50) came out at 0.44.

B18: h10A11 IGKV4-1/IGHV3-73 S52aT (antibody, name in Kabat numbering, V domains shown)
VH: EVQLVESGGGLVQPGGSLKLSCAASGFAFNTYALYWVRQASGKGLEWVGRIRTKSNNYATYYADSVKDRFTISRDDSKNTAYLQMNSLKTEDTAVYYCTRARFYYSDYGYAMDYWGQGTLVTVSS
VL: DIVMTQSPDSLAVSLGERATINCRSSKSLLHSNGNTYLYWYQQKPGQPPKLLIYRMSNLASGVPDRFSGSGSGTDFTLTISSLQAEDVAVYYCMQHLEYPLTFGQGTKLEIKR
In the case of B18, the IC50 ratio (WT IC50/mutant IC50) was found to be 0.22.

B19: h10A11 IGKV4-1/IGHV3-73 Y55F (antibody, name in Kabat numbering, V domains shown)
VH: EVQLVESGGGLVQPGGSLKLSCAASGFAFNTYALYWVRQASGKGLEWVGRIRSKSNNFATYYADSVKDRFTISRDDSKNTAYLQMNSLKTEDTAVYYCTRARFYYSDYGYAMDYWGQGTLVTVSS
VL: DIVMTQSPDSLAVSLGERATINCRSSKSLLHSNGNTYLYWYQQKPGQPPKLLIYRMSNLASGVPDRFSGSGSGTDFTLTISSLQAEDVAVYYCMQHLEYPLTFGQGTKLEIKR
In the case of B19, the IC50 ratio (WT IC50/mutant IC50) worked out at 0.47.

B20: h10A11 IGKV4-1/IGHV3-73 Y35F (antibody, name in Kabat numbering, V domains shown)
VH: EVQLVESGGGLVQPGGSLKLSCAASGFAFNTYALFWVRQASGKGLEWVGRIRSKSNNYATYYADSVKDRFTISRDDSKNTAYLQMNSLKTEDTAVYYCTRARFYYSDYGYAMDYWGQGTLVTVSS
VL: DIVMTQSPDSLAVSLGERATINCRSSKSLLHSNGNTYLYWYQQKPGQPPKLLIYRMSNLASGVPDRFSGSGSGTDFTLTISSLQAEDVAVYYCMQHLEYPLTFGQGTKLEIKR
For the molecule B20, the IC50 (n.d.: 10 nM or more) is greater than 10 nM.
